From publication PMC7480108

Tests used:
GST-FGD1^18-335 = GST-FGD1^18-335 (UniProt P52734); assay: pull-down; GST-tagged FGD1 fragment (2 µM) immobilised on Glutathione Sepharose 4B beads, incubated with MDA-MB-231 cell lysates (untransfected or transfected with TKS5^GFP constructs) 2 h at 4°C; 50 mM Tris-HCl pH 7.5, 150 mM NaCl, 0.5 mM EDTA, 10 mM MgCl2, 10% glycerol, 0.7% NP-40; immunoblotting
[1] = target: endogenous FGD1 (faciogenital dysplasia protein 1) (UniProt P98174); assay: co-immunoprecipitation (anti-GFP nanobody, GFP-Trap) with FGD1 immunoblot; settings: lysates of MDA-MB-231 cells; 1% of total lysate loaded as input; parent: 100
TKS5^GFPW1092A (human) = assay: co-IP; GFP-Trap (anti-GFP nanobody beads) from NP-40 lysates of MDA-MB-231 cells expressing GFP-tagged constructs, 1 h 4°C; immunoblotting of bound proteins

UniProt P52734, sequence (P52734 18-335): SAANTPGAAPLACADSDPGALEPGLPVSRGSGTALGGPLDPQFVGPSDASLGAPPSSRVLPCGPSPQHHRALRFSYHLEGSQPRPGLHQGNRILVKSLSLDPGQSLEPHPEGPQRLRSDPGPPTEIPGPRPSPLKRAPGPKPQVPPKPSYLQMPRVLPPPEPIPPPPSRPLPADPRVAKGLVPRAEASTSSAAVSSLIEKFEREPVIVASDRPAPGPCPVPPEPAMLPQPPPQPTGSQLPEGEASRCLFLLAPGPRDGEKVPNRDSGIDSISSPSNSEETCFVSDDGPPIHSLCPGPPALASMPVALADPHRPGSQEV
TKS5^GFP, sequence (Q5TCZ1 whole entry): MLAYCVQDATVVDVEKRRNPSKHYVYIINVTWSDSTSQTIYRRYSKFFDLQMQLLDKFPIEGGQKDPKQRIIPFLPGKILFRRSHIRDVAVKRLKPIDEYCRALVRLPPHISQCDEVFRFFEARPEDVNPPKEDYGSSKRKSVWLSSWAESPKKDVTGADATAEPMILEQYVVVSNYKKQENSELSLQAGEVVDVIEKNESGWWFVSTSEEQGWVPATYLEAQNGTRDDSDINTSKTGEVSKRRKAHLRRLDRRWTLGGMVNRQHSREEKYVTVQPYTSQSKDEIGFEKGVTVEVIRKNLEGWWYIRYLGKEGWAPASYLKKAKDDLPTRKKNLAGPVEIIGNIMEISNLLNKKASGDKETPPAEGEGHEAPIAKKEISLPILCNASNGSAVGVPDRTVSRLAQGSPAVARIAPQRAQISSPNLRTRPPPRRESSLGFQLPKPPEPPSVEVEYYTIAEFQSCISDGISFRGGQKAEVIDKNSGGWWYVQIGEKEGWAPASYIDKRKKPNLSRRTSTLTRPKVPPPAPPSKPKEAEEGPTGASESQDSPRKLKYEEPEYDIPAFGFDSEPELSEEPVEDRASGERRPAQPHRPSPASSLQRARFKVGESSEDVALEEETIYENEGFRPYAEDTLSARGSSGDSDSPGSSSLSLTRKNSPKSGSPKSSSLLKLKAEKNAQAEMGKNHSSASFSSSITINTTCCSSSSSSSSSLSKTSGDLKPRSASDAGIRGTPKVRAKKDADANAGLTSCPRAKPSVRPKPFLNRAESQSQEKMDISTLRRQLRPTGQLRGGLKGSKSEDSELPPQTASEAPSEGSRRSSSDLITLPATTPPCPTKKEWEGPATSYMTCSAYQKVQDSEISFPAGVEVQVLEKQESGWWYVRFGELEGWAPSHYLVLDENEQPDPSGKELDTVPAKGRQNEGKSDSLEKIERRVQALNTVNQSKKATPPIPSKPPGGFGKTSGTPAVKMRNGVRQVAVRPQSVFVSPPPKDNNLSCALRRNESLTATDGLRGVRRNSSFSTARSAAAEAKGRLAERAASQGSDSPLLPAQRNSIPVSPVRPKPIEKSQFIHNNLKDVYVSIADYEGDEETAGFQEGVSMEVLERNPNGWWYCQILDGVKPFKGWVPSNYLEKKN

percent of the input pulled down (% of the input) (GST-FGD1^18-335)	Molecule	further results
1.35	TKS5^GFP (natural protein)	
	TKS5^GFP W861A	percent of parent (% of wild-type TKS5) [1]: 91
2.85	TKS5_324-1118^GFP (domain or fragment)	
	endogenous FGD1 (faciogenital dysplasia protein 1) (natural protein) MHGHRAPGGAGPSEPEHPATNPPGAAPPACADSDPGASEPGLLARRGSGSALGGPLDPQFVGPSDTSLGAAPGHRVLPCGPSPQHHRALRFSYHLEGSQPRPGLHQGNRILVKSLSLDPGQSLEPHPEGPQRLRSDPGPPTETPSQRPSPLKRAPGPKPQVPPKPSYLQMPRMPPPLEPIPPPPSRPLPADPRVAKGLAPRAEASPSSAAVSSLIEKFEREPVIVASDRPVPGPSPGPPEPVMLPQPTSQPPVPQLPEGEASRCLFLLAPGPRDGEKVPNRDSGIDSISSPSNSEETCFVSDDGPPSHSLCPGPPALASVPVALADPHRPGSQEVDSDLEEEDDEEEEEEKDREIPVPLMERQESVELTVQQKVFHIANELLQTEKAYVSRLHLLDQVFCARLLEEARNRSSFPADVVHGIFSNICSIYCFHQQFLLPELEKRMEEWDRYPRIGDILQKLAPFLKMYGEYVKNFDRAVELVNTWTERSTQFKVIIHEVQKEEACGNLTLQHHMLEPVQRIPRYELLLKDYLLKLPHGSPDSKDAQKSLELIATAAEHSNAAIRKMERMHKLLKVYELLGGEEDIVSPTKELIKEGHILKLSAKNGTTQDRYLILFNDRLLYCVPRLRLLGQKFSVRARIDVDGMELKESSNLNLPRTFLVSGKQRSLELQARTEEEKKDWVQAINSTLLKHEQTLETFKLLNSTNREDEDTPPNSPNVDLGKRAPTPIREKEVTMCMRCQEPFNSITKRRHHCKACGHVVCGKCSEFRARLVYDNNRSNRVCTDCYVALHGVPGSSPACSQHTPQRRRSILEKQASVAAENSVICSFLHYMEKGGKGWHKAWFVVPENEPLVLYIYGAPQDVKAQRSLPLIGFEVGPPEAGERPDRRHVFKITQSHLSWYFSPETEELQRRWMAVLGRAGRGDTFCPGPTLSEDREMEEAPVAALGATAEPPESPQTRDKT	percent of the wild-type TKS5 binding capacity (% of wild type) (TKS5^GFPW1092A (human)): 10
